# In patent publication US20100029702A1, “Method For Identification of Compound Having Anti-Anxiety Effect” (priority 2006, published 2010):
# Key:
# variant 3 [1] = molecular target: T1, variant 3 (Homo sapiens, UniProt O60241, DEL364-418); assay: Changes in intracellular Ca2+ concentration in variant 3 gene stably-expressing strain; type: cell-based; conditions: variant 3 stably-expressing strain; CCK-8S 10 pM to 1 μM, figure at 1 nM
# T1 construct: a vector expressing each full-length cDNA clone was constructed; expressed in transfected cells; host or cells: CHO-K1 (variant3/CHO#14-18), variant3/pcDNA3.1
# T1 sequence (O60241 with tags, fused parts or gaps DEL364-418): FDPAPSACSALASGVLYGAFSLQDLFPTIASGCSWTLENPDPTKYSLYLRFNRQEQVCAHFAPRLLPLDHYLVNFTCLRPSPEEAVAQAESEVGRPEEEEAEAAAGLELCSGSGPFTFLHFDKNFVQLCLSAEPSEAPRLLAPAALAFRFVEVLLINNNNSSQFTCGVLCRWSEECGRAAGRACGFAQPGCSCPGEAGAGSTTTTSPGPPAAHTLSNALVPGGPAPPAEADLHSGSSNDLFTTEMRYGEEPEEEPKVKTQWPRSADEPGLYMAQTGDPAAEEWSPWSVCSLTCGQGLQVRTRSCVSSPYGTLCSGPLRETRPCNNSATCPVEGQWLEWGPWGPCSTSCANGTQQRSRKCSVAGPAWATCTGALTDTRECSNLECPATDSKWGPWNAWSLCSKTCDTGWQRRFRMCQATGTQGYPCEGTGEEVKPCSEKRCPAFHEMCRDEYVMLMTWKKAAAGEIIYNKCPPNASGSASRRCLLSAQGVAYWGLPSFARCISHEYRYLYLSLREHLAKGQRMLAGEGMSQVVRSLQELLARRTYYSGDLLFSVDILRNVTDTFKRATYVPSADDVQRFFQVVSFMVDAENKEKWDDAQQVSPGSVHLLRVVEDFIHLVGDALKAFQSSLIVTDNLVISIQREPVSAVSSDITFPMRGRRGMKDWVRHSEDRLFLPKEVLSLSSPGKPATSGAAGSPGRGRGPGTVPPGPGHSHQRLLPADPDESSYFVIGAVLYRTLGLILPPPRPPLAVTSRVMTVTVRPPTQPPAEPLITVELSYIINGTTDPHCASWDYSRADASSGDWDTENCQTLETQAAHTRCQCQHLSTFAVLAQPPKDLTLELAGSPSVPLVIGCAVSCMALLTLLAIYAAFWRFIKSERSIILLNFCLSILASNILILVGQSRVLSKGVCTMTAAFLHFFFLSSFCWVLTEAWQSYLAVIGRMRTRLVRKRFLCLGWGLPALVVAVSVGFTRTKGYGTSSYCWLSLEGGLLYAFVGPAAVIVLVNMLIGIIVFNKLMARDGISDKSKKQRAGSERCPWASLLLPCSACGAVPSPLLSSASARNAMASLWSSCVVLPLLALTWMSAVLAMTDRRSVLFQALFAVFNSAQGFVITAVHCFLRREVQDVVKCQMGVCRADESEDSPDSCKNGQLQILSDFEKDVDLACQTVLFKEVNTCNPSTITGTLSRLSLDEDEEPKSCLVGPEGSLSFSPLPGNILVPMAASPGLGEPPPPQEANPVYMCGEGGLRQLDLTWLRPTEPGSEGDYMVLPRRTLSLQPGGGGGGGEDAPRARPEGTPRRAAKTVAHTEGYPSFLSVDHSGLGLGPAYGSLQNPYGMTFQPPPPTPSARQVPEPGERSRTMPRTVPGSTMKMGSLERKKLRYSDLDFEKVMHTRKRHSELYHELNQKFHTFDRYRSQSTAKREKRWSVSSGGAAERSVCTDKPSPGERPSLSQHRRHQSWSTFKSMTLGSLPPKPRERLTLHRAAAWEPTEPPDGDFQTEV
# Description: (§1) Strains stably expressing splicing variants of the variant 3 gene were prepared by a method similar to the above-mentioned method using a variant 3 gene-expressing vector.
# (§2) To analyze functions of the variant 3 gene, changes in the intracellular calcium (Ca^2+) concentration induced by CCK-8S were examined using a strain stably expressing the variant 3 gene prepared in Example 7. Changes in the intracellular calcium (Ca^2+) concentration were measured by a method similar to the method described in Example 5.
# (§3) Cells were seeded in a 96-well plate (a plate with a black wall and a transparent bottom) at a cell count of 3×10^4/100 μL of medium/well and cultured overnight at 37° C. in a 5% CO2 incubator. On the following day, 50 μL of the medium was removed from each well, 50 μL of a loading buffer was added to each well, the mixture was reacted at room temperature for 1 h, so that a fluorescent dye contained in the loading buffer was taken up into the cell. The loading buffer was prepared by a method similar to the method described in Example 5. After reaction, changes over time in the fluorescence intensity after addition of CCK-8S in each well were measured using the FLEX station (Molecular Device) for 40 sec. CCK-8S was used at a final concentration of 10 pM to 1 μM. Furthermore, as a positive control of the assay, A23187 was used at a final concentration of 20 μM.
# variant 3 [2] = assay: as above; type: cell-based, human; conditions: variant3/CHO#14-18; A23187 20 μM, positive control
# Description: as §1, §2, §3
Change in intracellular Ca2+ concentration after addition of CCK-8S (variant 3 [1]),Compound,Change in intracellular Ca2+ concentration (fluorescence intensity) (variant 3 [2])
increase,cholecystokinin octapeptide sulfated form [CCK-8S],–
–,CNc1ccc2oc(C[C@H]3O[C@@]4(CC[C@H]3C)O[C@H]([C@H](C)C(=O)c3ccc[nH]3)[C@H](C)C[C@H]4C)nc2c1C(=O)O [A23187],increased
